{"source": "the Human Domainome abundance scans (Beltran et al. 2025)", "parents": {"B1": {"name": "RAS guanyl-releasing protein 1, residues 539 to 593; numbered along this chain, O95267 (parent)", "chain": "GFPHNFQETTYLKPTFCDNCAGFLWGVIKQGYRCKDCGMNCHKQCKDLVVFECKK"}}, "note": "± gives the uncertainty stated by the source.", "data": [{"variants_of": "B1", "test": "abundance fitness (aPCA) (normalised: wild type 0, dead -1); higher = more abundant; growth selection in yeast, the domain comes from the species named", "details": "Homo sapiens", "values": [{"variant": "GFPHNFQETTYLKPWFCDNCAGFLWGVIKQGYRCKDCGMNCHKQCKDLVVFECKK", "note": "[T15W]", "abundance fitness": "-0.444 ± 0.12"}, {"variant": "GFPHNFQETTYLKPGFCDNCAGFLWGVIKQGYRCKDCGMNCHKQCKDLVVFECKK", "note": "[T15G]", "abundance fitness": "-0.607 ± 0.088"}, {"variant": "GFPHNFQETTYLKPVFCDNCAGFLWGVIKQGYRCKDCGMNCHKQCKDLVVFECKK", "note": "[T15V]", "abundance fitness": "-0.425 ± 0.063"}, {"variant": "GFPHNFQETTYLKPSFCDNCAGFLWGVIKQGYRCKDCGMNCHKQCKDLVVFECKK", "note": "[T15S]", "abundance fitness": "-0.181 ± 0.062"}, {"variant": "GFPHNFQETTYLKPKFCDNCAGFLWGVIKQGYRCKDCGMNCHKQCKDLVVFECKK", "note": "[T15K]", "abundance fitness": "-0.391 ± 0.14"}, {"variant": "GFPHNFQETTYLKPMFCDNCAGFLWGVIKQGYRCKDCGMNCHKQCKDLVVFECKK", "note": "[T15M]", "abundance fitness": "-0.146 ± 0.13"}, {"variant": "GFPHNFQETTYLKPNFCDNCAGFLWGVIKQGYRCKDCGMNCHKQCKDLVVFECKK", "note": "[T15N]", "abundance fitness": "-0.336 ± 0.13"}, {"variant": "GFPHNFQETTYLKPFFCDNCAGFLWGVIKQGYRCKDCGMNCHKQCKDLVVFECKK", "note": "[T15F]", "abundance fitness": "-0.434 ± 0.15"}, {"variant": "GFPHNFQETTYLKPLFCDNCAGFLWGVIKQGYRCKDCGMNCHKQCKDLVVFECKK", "note": "[T15L]", "abundance fitness": "-0.236 ± 0.083"}, {"variant": "GFPHNFQETTYLKPQFCDNCAGFLWGVIKQGYRCKDCGMNCHKQCKDLVVFECKK", "note": "[T15Q]", "abundance fitness": "-0.426 ± 0.25"}, {"variant": "GFPHNFQETTYLKPPFCDNCAGFLWGVIKQGYRCKDCGMNCHKQCKDLVVFECKK", "note": "[T15P]", "abundance fitness": "-0.476 ± 0.071"}, {"variant": "GFPHNFQETTYLKPHFCDNCAGFLWGVIKQGYRCKDCGMNCHKQCKDLVVFECKK", "note": "[T15H]", "abundance fitness": "-0.185 ± 0.12"}, {"variant": "GFPHNFQETTYLKPIFCDNCAGFLWGVIKQGYRCKDCGMNCHKQCKDLVVFECKK", "note": "[T15I]", "abundance fitness": "-0.162 ± 0.069"}, {"variant": "GFPHNFQETTYLKPDFCDNCAGFLWGVIKQGYRCKDCGMNCHKQCKDLVVFECKK", "note": "[T15D]", "abundance fitness": "-0.622 ± 0.16"}, {"variant": "GFPHNFQETTYLKPEFCDNCAGFLWGVIKQGYRCKDCGMNCHKQCKDLVVFECKK", "note": "[T15E]", "abundance fitness": "-0.401 ± 0.062"}, {"variant": "GFPHNFQETTYLKPRFCDNCAGFLWGVIKQGYRCKDCGMNCHKQCKDLVVFECKK", "note": "[T15R]", "abundance fitness": "-0.29 ± 0.076"}, {"variant": "GFPHNFQETTYLKPTFFDNCAGFLWGVIKQGYRCKDCGMNCHKQCKDLVVFECKK", "note": "[C17F]", "abundance fitness": "-1.14 ± 0.24"}, {"variant": "GFPHNFQETTYLKPTFQDNCAGFLWGVIKQGYRCKDCGMNCHKQCKDLVVFECKK", "note": "[C17Q]", "abundance fitness": "-0.755 ± 0.1"}, {"variant": "GFPHNFQETTYLKPTFMDNCAGFLWGVIKQGYRCKDCGMNCHKQCKDLVVFECKK", "note": "[C17M]", "abundance fitness": "-0.578 ± 0.1"}, {"variant": "GFPHNFQETTYLKPTFSDNCAGFLWGVIKQGYRCKDCGMNCHKQCKDLVVFECKK", "note": "[C17S]", "abundance fitness": "-0.948 ± 0.18"}, {"variant": "GFPHNFQETTYLKPTFGDNCAGFLWGVIKQGYRCKDCGMNCHKQCKDLVVFECKK", "note": "[C17G]", "abundance fitness": "-0.99 ± 0.27"}, {"variant": "GFPHNFQETTYLKPTFLDNCAGFLWGVIKQGYRCKDCGMNCHKQCKDLVVFECKK", "note": "[C17L]", "abundance fitness": "-1.26 ± 0.27"}, {"variant": "GFPHNFQETTYLKPTFADNCAGFLWGVIKQGYRCKDCGMNCHKQCKDLVVFECKK", "note": "[C17A]", "abundance fitness": "-1.09 ± 0.09"}, {"variant": "GFPHNFQETTYLKPTFIDNCAGFLWGVIKQGYRCKDCGMNCHKQCKDLVVFECKK", "note": "[C17I]", "abundance fitness": "-0.869 ± 0.31"}, {"variant": "GFPHNFQETTYLKPTFRDNCAGFLWGVIKQGYRCKDCGMNCHKQCKDLVVFECKK", "note": "[C17R]", "abundance fitness": "-0.851 ± 0.15"}, {"variant": "GFPHNFQETTYLKPTFWDNCAGFLWGVIKQGYRCKDCGMNCHKQCKDLVVFECKK", "note": "[C17W]", "abundance fitness": "-1.27 ± 0.34"}, {"variant": "GFPHNFQETTYLKPTFPDNCAGFLWGVIKQGYRCKDCGMNCHKQCKDLVVFECKK", "note": "[C17P]", "abundance fitness": "-1.13 ± 0.33"}, {"variant": "GFPHNFQETTYLKPTFEDNCAGFLWGVIKQGYRCKDCGMNCHKQCKDLVVFECKK", "note": "[C17E]", "abundance fitness": "-0.826 ± 0.4"}, {"variant": "GFPHNFQETTYLKPTFDDNCAGFLWGVIKQGYRCKDCGMNCHKQCKDLVVFECKK", "note": "[C17D]", "abundance fitness": "-0.986 ± 0.12"}, {"variant": "GFPHNFQETTYLKPTFVDNCAGFLWGVIKQGYRCKDCGMNCHKQCKDLVVFECKK", "note": "[C17V]", "abundance fitness": "-0.878 ± 0.12"}, {"variant": "GFPHNFQETTYLKPTFTDNCAGFLWGVIKQGYRCKDCGMNCHKQCKDLVVFECKK", "note": "[C17T]", "abundance fitness": "-0.821 ± 0.37"}, {"variant": "GFPHNFQETTYLKPTFHDNCAGFLWGVIKQGYRCKDCGMNCHKQCKDLVVFECKK", "note": "[C17H]", "abundance fitness": "-0.784 ± 0.26"}, {"variant": "GFPHNFQETTYLKPTVCDNCAGFLWGVIKQGYRCKDCGMNCHKQCKDLVVFECKK", "note": "[F16V]", "abundance fitness": "-0.385 ± 0.064"}, {"variant": "GFPHNFQETTYLKPTCCDNCAGFLWGVIKQGYRCKDCGMNCHKQCKDLVVFECKK", "note": "[F16C]", "abundance fitness": "0.038 ± 0.11"}, {"variant": "GFPHNFQETTYLKPTWCDNCAGFLWGVIKQGYRCKDCGMNCHKQCKDLVVFECKK", "note": "[F16W]", "abundance fitness": "-0.376 ± 0.12"}, {"variant": "GFPHNFQETTYLKPTACDNCAGFLWGVIKQGYRCKDCGMNCHKQCKDLVVFECKK", "note": "[F16A]", "abundance fitness": "-0.085 ± 0.08"}, {"variant": "GFPHNFQETTYLKPTDCDNCAGFLWGVIKQGYRCKDCGMNCHKQCKDLVVFECKK", "note": "[F16D]", "abundance fitness": "-0.371 ± 0.1"}, {"variant": "GFPHNFQETTYLKPTKCDNCAGFLWGVIKQGYRCKDCGMNCHKQCKDLVVFECKK", "note": "[F16K]", "abundance fitness": "-0.205 ± 0.12"}, {"variant": "GFPHNFQETTYLKPTYCDNCAGFLWGVIKQGYRCKDCGMNCHKQCKDLVVFECKK", "note": "[F16Y]", "abundance fitness": "0.024 ± 0.12"}, {"variant": "GFPHNFQETTYLKPTGCDNCAGFLWGVIKQGYRCKDCGMNCHKQCKDLVVFECKK", "note": "[F16G]", "abundance fitness": "-0.333 ± 0.068"}, {"variant": "GFPHNFQETTYLKPTPCDNCAGFLWGVIKQGYRCKDCGMNCHKQCKDLVVFECKK", "note": "[F16P]", "abundance fitness": "-0.334 ± 0.11"}, {"variant": "GFPHNFQETTYLKPTQCDNCAGFLWGVIKQGYRCKDCGMNCHKQCKDLVVFECKK", "note": "[F16Q]", "abundance fitness": "-0.243 ± 0.14"}, {"variant": "GFPHNFQETTYLKPTTCDNCAGFLWGVIKQGYRCKDCGMNCHKQCKDLVVFECKK", "note": "[F16T]", "abundance fitness": "-0.33 ± 0.11"}, {"variant": "GFPHNFQETTYLKPTLCDNCAGFLWGVIKQGYRCKDCGMNCHKQCKDLVVFECKK", "note": "[F16L]", "abundance fitness": "-0.487 ± 0.11"}, {"variant": "GFPHNFQETTYLKPTECDNCAGFLWGVIKQGYRCKDCGMNCHKQCKDLVVFECKK", "note": "[F16E]", "abundance fitness": "-0.408 ± 0.11"}, {"variant": "GFPHNFQETTYLKPTNCDNCAGFLWGVIKQGYRCKDCGMNCHKQCKDLVVFECKK", "note": "[F16N]", "abundance fitness": "-0.175 ± 0.096"}, {"variant": "GFPHNFQETTYLKPTHCDNCAGFLWGVIKQGYRCKDCGMNCHKQCKDLVVFECKK", "note": "[F16H]", "abundance fitness": "-0.148 ± 0.12"}, {"variant": "GFPHNFQETTYLKPTSCDNCAGFLWGVIKQGYRCKDCGMNCHKQCKDLVVFECKK", "note": "[F16S]", "abundance fitness": "-0.285 ± 0.094"}]}]}
